Reference: the nanobody polyreactivity screen of Harvey et al. (2022)

assay: yeast display, Sf9 membrane polyspecificity reagent, FACS + sequencing; frameworks hold sequencing errors
Method in brief: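 Genes from sorted yeast were amplified by colony PCR, read by MiSeq 2 × 250 sequencing and filtered on CDR length. These cells carried a synthetic nanobody library in Saccharomyces cerevisiae BJ5465 and were sorted by FACS into low and high (top ~1%) gates on anti-HA and streptavidin fluorescence. Polyreactivity is labelled according to the gate of origin.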

Row | Sequence | polyreactivity (PSR sort gate)
1 | QVQLVESGGGLVQAGGSLRLSCAASGFIFVYYAMGWYRQAPGKERELVATISSSSASTYYADSVKGRFTISRDNAKNTVYLQMNSLKPEDTAVYYCAVLVSRYRYRVLDDSWGQGTQVTVSS | high polyreactivity
2 | QVQLVESGGGLVQAGGSLRLSCAASGFIFWEYAMGWYRQAPGKERELVAVISYRGGSTYYADSVKGRFTISRDNAKNTVYLQMNSLKPEDTAVYYCNADTIPDGEDRYDYWGQGTQVTVSS | low polyreactivity
3 | QVQLVESGGGLVQAGGSLRLSCAASGFIFWFYAMGWYRQAPGKERELVASISASGGSTNYADSVKGRFTISRDYAKKTVYLQMNSLKPEDTAVYYCAARKRYLRGYWGQGTQVTVSS | high polyreactivity
4 | QVQLVESGGGLVQAGGSLRLSCAASGFIFWIYAMGWYRQAPGKEREFVAVITYRGDTSYYADSVKGRFTISRDNAKNTVYLQMNSLKPEDTAVYYCAAYTVQKYGYWGQGTQVTVSS | low polyreactivity
5 | QVQLVESGGGLVQAGGSLRLSCAASGFIFWLYALGWYRKAPGKERELVASINWSGGDTYYADSVKGRFTISRDNPKNTVYLQLNSLKPEDTAVYYCNAQVYRYRIGYDYWGQGPQVTVSS | low polyreactivity
6 | QVQLVESGGGLVQAGGSLRLSCAASGFIFWRYAMGWYRQAPGKDRELVAAISSTGRTYYADSVKGRFTISRDNAKNTVYLQMNSLKPEDTAVYYCNAAPVYLADPTRKYKADYWGQGTQVTVSS | low polyreactivity
7 | QVQLVESGGGLVQAGGSLRLSCAASGFIFWRYAMGWYRQAPGKERELVAAITSGGRTNYADSVKGRFTISRDNAKNTVYLQMNSLKPEDTAVYYCAADRSWSPRAGWYDYWGQGTQVTVSS | high polyreactivity
8 | QVQLVESGGGLVQAGGSLRLSCAASGFIFWRYAMGWYRQAPGKERELVATITSSGGTTHYADSVKGRFTISRDNAKNTVYLQMNSLKPEDTAVYYCATRKGVGSLYYSRNYWGQGTQVTVSS | high polyreactivity
9 | QVQLVESGGGLVQAGGSLRLSCAASGFIFWRYTMGWYRQAPGKERELVAVISWRGDNTYADSVEGRFTISRDNAKNTVYLQMNSLKPEDTAVYYCGVYRYDYWGQGTQVTVSS | low polyreactivity
10 | QVQLVESGGGLVQAGGSLRLSCAASGFIFWSNAMGWYRQAPGKERELVAAINSSGGRTYYADSVKGRFTISRDNAKNTVYLQMNSLKPEDTAVYYCAARLHSPRYRYDYWGQGTQVTVSS | high polyreactivity
11 | QVQLVESGGGLVQAGGSLRLSCAASGFIFWTYAMGWYRQAPGKERELVAAITWSGTSTYYADSVKGRFTISRDNAKNTVYLQMNSLKPEDTAVYYCNALYYSRRVDYWGQGTQVTVSS | high polyreactivity
12 | QVQLVESGGGLVQAGGSLRLSCAASGFIFWYNAMGWYRPAPGKEREFVAAISSGGSTTYADSVKGRFTISRDNAKNTVYLQMNSLKPEDTAVYYCAAGSYDYDYWGQGTQVTVSS | low polyreactivity
13 | QVQLVESGGGLVQAGGSLRLSCAASGFIFWYYAMGWYRPAPGKERELVATITRGGSTYYADSVKGRFTISRDNAKNTVYLQLNSLKPEDTAVYYCNAVRPKIYDYWGQGTQVTLSS | high polyreactivity
14 | QVQLVESGGGLVQAGGSLRLSCAASGFIFWYYAMGWYRQAPGKERELVATITSGGSTTYADSVKGRFTISRDNAKNTVYLQMNSLKPEDTAVYYCAAKGISRYDWGQGTQVTVSS | low polyreactivity
15 | QVQLVESGGGLVQAGGSLRLSCAASGFIFYANAMGWYRQAPGKERELVAAITWSGSRTYYADSVKGRFTISRDNAKNTVYLQMNSLKPEDTAVYYCNKDWYVGSFGYPEDYWGQGTQVSVSS | low polyreactivity
16 | QVQLVESGGGLVQAGGSLRLSCAASGFIFYAYAMGWYRQAPGKERELVAAISYSGGSTYYADSVKGRFTISRDNAKNTVYLQMNSLKPEDTAVYYCNTVSYGYSSKLYDYWGQGTLVTVSS | high polyreactivity
17 | QVQLVESGGGLVQAGGSLRLSCAASGFIFYAYTMGWYRQAPGKERELVAAISRSGGRTYYADSVKGRFTISRDNAKNTVYLQMNSLKPEDTAVYYCAAEYRGVPRVVVDYDYWGQGTQVTVSS | high polyreactivity
18 | QVQLVESGGGLVQAGGSLRLSCAASGFIFYDNAMGWYRQAPGKERELVAAIDWSGDSTYYADSVKGRFTISRDNAKNTVYLQMNSLKPEDTAVYYCAADSQDPGDYYLFDYWGQGTQVTVSS | low polyreactivity
19 | QVQLVESGGGLVQAGGSLRLSCAASGFIFYDYAMGWYRQAPGKERELVAAIRSSDGGTYYADSEKGPFTISRDNAKNTVYLQMNSLKPEDTAVDYCAAEIRWGWHPYYDYDEYWGQGTLVTVSS | low polyreactivity
20 | QVQLVESGGGLVQAGGSLRLSCAASGFIFYDYDMGWYRQAPGKEREFVAAITYSGGSTYYADSVKGRFTISRDNAKNTVYLQMNCLKPEDTAFYYCADVKSRYAEAVDYFYWGQGTHVTVSS | low polyreactivity
21 | QVQLVESGGGLVQAGGSLRLSCAASGFIFYHYAMGWYRQAPGKERELVAAISGRGGSTYYADSVKGRFTISRDNAKNTVYLQMNSLKPEDTAVYYCATDYSRTFDYWGQGTQVTVSS | high polyreactivity
22 | QVQLVESGGGLVQAGGSLRLSCAASGFIFYKNAMGWYRQAPGKERQLVAAINFSTGRTYYADSVKGRFTISRDNAKNTVYLQMNSLKPEDTAVYYCASKSANPRKYYYWGQGTQVTVSS | high polyreactivity

Row | Sequence | polyreactivity (PSR sort gate)
23 | QVQLVESGGGLVQAGGSLRLSCAASGFIFYKYAMGWYRQAPGKERELVAAISKRGGSTYYADSVKGRFTISRDNAKNTVYLQMNSLKPEDNAVYYCATVGGNSGTVRYFASDYWGQGTKVTVSS | high polyreactivity
24 | QVQLVESGGGLVQAGGSLRLSCAASGFIFYKYAMGWYRQAPGKERELVAAISRGGTTTYADSVKGRFTISRDNAKNTVYLQMNSLKPEDTAVYYCNKYFRYRYDYWGQGTQVTVSS | high polyreactivity
25 | QVQLVESGGGLVQAGGSLRLSCAASGFIFYKYAMGWYRQAPGKERELVAAITRRGGSTYYADSVKGRFTISRDNAKNTVYLQMNSLKPEDTAVYYCAKYIYGYKDSPLGDDYWGQGTQVTVSS | high polyreactivity
26 | QVQLVESGGGLVQAGGSLRLSCAASGFIFYKYAMGWYRQAPRKEREFVASISGSGGRTYYADSVKGRFTISRDNAKNTVYLQMNSLKPEDTAVYYCAVDLLRRGFPTVVTTYDYWGQGTQVTVSS | high polyreactivity
27 | QVQLVESGGGLVQAGGSLRLSCAASGFIFYLYAMGWYRQAPGKEMELVAAISWGGGTTYYADSVKGRFTISRDNAKNTVYLKMNSLKPEDTAVYYCAAETEYYSYRFDYWGQGTQVTVSS | high polyreactivity
28 | QVQLVESGGGLVQAGGSLRLSCAASGFIFYNYAMGWSRQAPGKERELVAAITGGGSTNYADSVKGRFTISRDNAKTTVYLQMNSLKPEDTAVYYCAAEEGPPWSRYDYWGQGTQVTVSS | low polyreactivity
29 | QVQLVESGGGLVQAGGSLRLSCAASGFIFYNYAMGWYRQAPGKERELVAAISASGGRTYYADSVKGRFTISRDNAKNTVYLQMHRLKPEDTAVYYCIARVKYKGYDYWGQGTQVTVSS | high polyreactivity
30 | QVQLVESGGGLVQAGGSLRLSCAASGFIFYPNAMGWYRQAPGKERELVAAISSSTGSTYYADSVKGRFTISRDNAKNTVYLQMNSLNRVDTAGYYCAADLEYYPIGGDLQEREYWGQGTQVTVSS | low polyreactivity
31 | QVQLVESGGGLVQAGGSLRLSCAASGFIFYRDAMGWYRPAPGKERELVAAISSRGVSTYYADSVKGRFTISRDNAKNTVYLLMNSLKPEDTAVYSCARISRYYALYDYWGQGTQVTVSS | high polyreactivity
32 | QVQLVESGGGLVQAGGSLRLSCAASGFIFYRNTMGWYRQAPGKEREFVAAIRWRGGSSYYADSVKGRFTISRDNAKNTVYLQMNSLKPEDTAVYYCAADTRPGYSGFEYWGQGTQVTVSS | high polyreactivity
33 | QVQLVESGGGLVQAGGSLRLSCAASGFIFYRNTMGWYRQAPGKEREFVAAIRWRGGSTYYADSVKGRFTISRDNAKNTFYLQLNSVKPEDTAVYYCAADTRPGYSGFEYWGQGTQVTVSS | high polyreactivity
34 | QVQLVESGGGLVQAGGSLRLSCAASGFIFYRYAMGWSRQAPGKERELVAAISYRGGSTYYADSVKGRFTISRDIAKNTVYLQMNSLKAEDTAFYYCAAPGLYSRLDYWGQGTQVTVSS | high polyreactivity
35 | QVQLVESGGGLVQAGGSLRLSCAASGFIFYRYAMGWYRQAPGKEREFVAVISRSGDRTNYADSVKGRFTISRDNAKNTVYLQMNSLKPEDTAVYYCNTDSRSAHGYWGQGTQVTVSS | high polyreactivity
36 | QVQLVESGGGLVQAGGSLRLSCAASGFIFYRYAMGWYRQAPGKERELVAAISRGDSTYYADSVKGRFTISRDNAKNTVYLQMNSLKPEDTAVYYCNADRPRYTYRATTYTGRYDYWGQGTQVTVSS | low polyreactivity
37 | QVQLVESGGGLVQAGGSLRLSCAASGFIFYRYAMGWYRQAPGKERELVAAISRSGGSTYYADSVKGRFTISRDNAKNTVYLQMNSLKPEDTAVYYCAADRGSLAPGNDYWGQGNQVTVSS | high polyreactivity
38 | QVQLVESGGGLVQAGGSLRLSCAASGFIFYRYAMGWYRQAPGKERELVAAISSSGGSTYYADSVKGRFTISRDNAKNTVYLQMNSLKPEDTAVYYCNKRPQQYSPGYDYWGQGTQVTVSS | high polyreactivity
39 | QVQLVESGGGLVQAGGSLRLSCAASGFIFYRYAMGWYRQAPGKERELVAAISTLGGSTFYADSVKGRFTISRDNAKNTVYLQMISLKPEDTAVYYCATGPLRAYDYWGQGTQVTVSS | high polyreactivity
40 | QVQLVESGGGLVQAGGSLRLSCAASGFIFYRYAMGWYRQAPGKERELVASITKRGGSTRYADSVKGRFTISRDNAKNTVYLQMNSLKPEDTAVYYCAKVPYSTAFDYWGQGTQVTVSS | high polyreactivity
41 | QVQLVESGGGLVQAGGSLRLSCAASGFIFYRYAMGWYRQAPGKESELVAAISRSGGSKYYADSVKGRFTISRDLANNTVYLQLNSLKPEDTAVYYCATPVHRKLYLVNYWGQGTQVTVSS | low polyreactivity
42 | QVQLVESGGGLVQAGGSLRLSCAASGFIFYSNAMGWYRQAPGKDRELVASITGDGGTTYYADSVKGRFTISRDKAKNTVYLQMNSLKPEATAVYYCAKDYIYRGYYTDFRYEDYDYWGPGTQVTVSS | low polyreactivity
43 | QVQLVESGGGLVQAGGSLRLSCAASGFIFYSNAMGWYRQAPGKERELVAAIRSTGSTSYADSVKGRFTISRDNAKNTVYLQMNSLKPEDTAVYYCAKVRYWRGYDYWGQGTQVTVSS | high polyreactivity
